Test results from PMC11445458.
Values joined by “and” are separate entries in the source; they are usually repeats but may differ in a detail not shown here. Equal values may be shown once.

Tests used:
[1] = target: adaptor protein (gp41) of bacteriophage JBD30 (bacteriophage JBD30 (Casadabanvirus JBD30)); experiment: cryo-EM structure; single-particle reconstructions (icosahedral, C5, C12, C6, C3, asymmetric, localized) of purified JBD30 virions and empty particles in phage buffer (10 mM MgSO4, 10 mM NaCl, 50 mM Tris pH 8); native assembly
[2] = target: baseplate hub protein (gp53) of bacteriophage JBD30 (bacteriophage JBD30 (Casadabanvirus JBD30)); experiment: as above
[3] = target: distal tail protein (gp49) of bacteriophage JBD30 (bacteriophage JBD30 (Casadabanvirus JBD30)); experiment: as above
[4] = target: major capsid protein (gp38) of bacteriophage JBD30 (bacteriophage JBD30 (Casadabanvirus JBD30)); experiment: cryo-EM structure; single-particle reconstruction of JBD30 procapsids found in the purified phage sample (icosahedral, C5, localized C12 portal)
[5] = target: major capsid protein (gp38) of bacteriophage JBD30 (bacteriophage JBD30 (Casadabanvirus JBD30)); experiment: cryo-EM structure; single-particle reconstructions (icosahedral, C5, C12, C6, C3, asymmetric, localized) of purified JBD30 virions and empty particles in phage buffer (10 mM MgSO4, 10 mM NaCl, 50 mM Tris pH 8); native assembly
[6] = target: major tail protein (gp44) of bacteriophage JBD30 (bacteriophage JBD30 (Casadabanvirus JBD30)); experiment: as above
[7] = target: minor capsid protein (gp39) of bacteriophage JBD30 (bacteriophage JBD30 (Casadabanvirus JBD30)); experiment: as above
[8] = target: portal protein (gp32) of bacteriophage JBD30 (bacteriophage JBD30 (Casadabanvirus JBD30)); experiment: cryo-EM structure; single-particle reconstruction of JBD30 procapsids found in the purified phage sample (icosahedral, C5, localized C12 portal)
[9] = target: portal protein (gp32) of bacteriophage JBD30 (bacteriophage JBD30 (Casadabanvirus JBD30)); experiment: cryo-EM structure; single-particle reconstructions (icosahedral, C5, C12, C6, C3, asymmetric, localized) of purified JBD30 virions and empty particles in phage buffer (10 mM MgSO4, 10 mM NaCl, 50 mM Tris pH 8); native assembly
[10] = target: receptor binding protein (gp54) of bacteriophage JBD30 (bacteriophage JBD30 (Casadabanvirus JBD30)); experiment: as above
[11] = target: stopper protein (gp42) of bacteriophage JBD30 (bacteriophage JBD30 (Casadabanvirus JBD30)); experiment: as above
[12] = target: tape measure protein (gp46) of bacteriophage JBD30 (bacteriophage JBD30 (Casadabanvirus JBD30)); experiment: as above

## adaptor protein (gp41) of bacteriophage JBD30 (natural protein)
[1]
  stoichiometry N: 12

## baseplate hub protein (gp53) of bacteriophage JBD30 (natural protein)
[2]
  stoichiometry N: 3

## distal tail protein (gp49) of bacteriophage JBD30 (natural protein)
[3]
  stoichiometry N: 3

## major capsid protein (gp38) of bacteriophage JBD30 (natural protein)
[4]
  stoichiometry N: 5 and 6
[5]
  stoichiometry N: 5 and 6

## major tail protein (gp44) of bacteriophage JBD30 (natural protein)
[6]
  stoichiometry N: 6

## minor capsid protein (gp39) of bacteriophage JBD30 (natural protein)
[7]
  stoichiometry N: 3

## portal protein (gp32) of bacteriophage JBD30 (natural protein)
[8]
  stoichiometry N: 12
[9]
  stoichiometry N: 12

## receptor binding protein (gp54) of bacteriophage JBD30 (natural protein)
[10]
  stoichiometry N: 3

## stopper protein (gp42) of bacteriophage JBD30 (natural protein)
[11]
  stoichiometry N: 6

## tape measure protein (gp46) of bacteriophage JBD30 (natural protein)
[12]
  stoichiometry N: 3
